This test addresses T1, human pyruvate kinase isoform M2 (PK M2) (human, UniProt P14618-1 1-531).
T1 construct: Pyruvate kinase isoform M2, human; used at 2 uM in solution
Briefly: ultrafiltration; equimolar HMGB1 and PK M2 (2 uM each) mixed in 300 ul, filtrated (14000 g, 4 C) to 15 ul in an Amicon Ultra 0.5 ml 30 k device; filtrate and retentate analysed by Western blot; HMGB1 and PKM2 also analysed alone. As to conditions: both partners purified. For orientation: A western blot detects proteins with antibodies after separation by electrophoresis.

T1 sequence (P14618 whole entry, canonical isoform): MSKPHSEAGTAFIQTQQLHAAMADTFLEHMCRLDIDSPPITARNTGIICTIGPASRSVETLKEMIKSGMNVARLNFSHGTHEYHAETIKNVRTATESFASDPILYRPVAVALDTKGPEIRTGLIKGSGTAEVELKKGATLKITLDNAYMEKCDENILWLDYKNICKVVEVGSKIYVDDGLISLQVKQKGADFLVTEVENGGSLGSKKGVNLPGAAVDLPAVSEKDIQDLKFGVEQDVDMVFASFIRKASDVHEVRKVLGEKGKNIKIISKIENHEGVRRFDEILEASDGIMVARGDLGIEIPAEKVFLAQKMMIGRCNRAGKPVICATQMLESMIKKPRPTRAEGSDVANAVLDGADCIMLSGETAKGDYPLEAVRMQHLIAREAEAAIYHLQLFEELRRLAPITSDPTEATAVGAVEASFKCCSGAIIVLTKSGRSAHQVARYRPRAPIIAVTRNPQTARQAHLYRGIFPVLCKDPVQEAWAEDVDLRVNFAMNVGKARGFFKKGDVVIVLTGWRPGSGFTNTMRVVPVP

B1: recombinant human HMGB1 protein (high-mobility group box 1) (natural protein, UniProt P09429 1-215, looked up)
chain: MGKGDPKKPRGKMSSYAFFVQTCREEHKKKHPDASVNFSEFSKKCSERWKTMSAKEKGKFEDMAKADKARYEREMKTYIPPKGETKKKFKDPNAPKRPPSAFFLFCSEYRPKIKGEHPGLSIGDVAKKLGEMWNNTAADDKQPYEKKAAKLKEKYEKDIAAYRAKGKPDAAKKGVVKAEKSKKKKEEEEDEEDEEDEEEEEDEEDEDEEEDDDDE
notes: High-mobility group box 1 protein, human, recombinant; the only recombinant human HMGB1 named is from Sigma-Aldrich; also called rhHMGB1; source: bought: Sigma-Aldrich (recombinant human HMGB1; human HMGB1 protein produced in E. coli)
Consider B1, for which the binding result is recorded as “binds”.
